Numbering of substitutions follows the chain as printed.

Assay [1] deals with full-length recombinant H7 HA (A/Netherlands/219/2003) on PER.C6 cells (influenza A virus (H7N7)). As to the kind of experiment: FACS, IgG 5 µg/ml, HA-expressing PER.C6 cells; untransfected MFI 4. (Flow cytometry measures light scatter and fluorescence of single cells or particles in a stream.)
Assay [2] addresses full-length recombinant H3 HA (A/Wisconsin/67/2005) on PER.C6 cells (influenza A virus (H3N2)). The assay is described as above.
In assay [3] the target is full-length recombinant H1 HA (A/New Caledonia/20/1999) on PER.C6 cells (influenza A virus (H1N1)). The assay is described as above.
Assay [4] has as its target HA of virus A/Mallard/Netherlands/12/2000 (H7N3) (influenza A virus (H7N3)). As to the kind of experiment: cell-based or functional assay.
Assay [5] concerns the target HA of virus A/New Caledonia/20/1999 (H1N1) (influenza A virus (H1N1)). As to the kind of experiment: cell-based or functional assay.
Assay [6] deals with HA of virus A/Chick/Germany/N/49 (H10) (influenza A virus (H10)). As to the kind of experiment: cell-based or functional assay.
For assay [7], the target named is HA of virus A/Solomon Islands/IVR-145 (H1N1) (influenza A virus (H1N1)). As to the kind of experiment: cell-based or functional assay.
For assay [8], the target named is HA of virus A/Hiroshima/52/2005 (H3N2) (influenza A virus (H3N2)). As to the kind of experiment: cell-based or functional assay.
Assay [9] has as its target HA of virus A/Johannesburg/33/94 (H3N2) (influenza A virus (H3N2)). Description: cell-based or functional assay.
Assay [10] has as its target HA of virus A/Brisbane/59/2007 (H1N1) (influenza A virus (H1N1)). Description: cell-based or functional assay.
The target in assay [11] is HA of virus A/Panama/2000/1999 (H3N2) (influenza A virus (H3N2)). Description: cell-based or functional assay.
Assay [12] deals with HA of virus A/Wisconsin/67/2005 (H3N2) (influenza A virus (H3N2)). Description: cell-based or functional assay.
The target in assay [13] is full-length recombinant H7 HA (A/Netherlands/219/2003) on PER.C6 cells (influenza A virus (H7N7)). Description: FACS, IgG 5 µg/ml, HA-expressing PER.C6 cells; untransfected MFI 3.
The target of assay [14] is full-length recombinant H3 HA (A/Wisconsin/67/2005) on PER.C6 cells (influenza A virus (H3N2)). The description is as above.
Assay [15] concerns the target full-length recombinant H1 HA (A/New Caledonia/20/1999) on PER.C6 cells (influenza A virus (H1N1)). Described as above.
Assay [16] deals with 3 H1N1 strains (1999-2007). As to the kind of experiment: cell-based or functional assay.

B1: CR8039 (antibody, V domains shown)
VH: QLQLQESGPGLVKPSETLSLTCTVSGGSIGSYYWSWIRQPPGKGLEWIGYIYYRGGTSYNPSLKSRVTISVDTSKSQFTLKLNSVTAADTAVYYCARKDWGSAAGSVWYFDL
VL: QSALTQPPSASGSPGQSVTISCTGTSSDVGGYNYVSWYQQHPGKAPKLMIREVSKRPSGVPDRFSGSKSGNTASLTVSGLQAEDEAEYYCSSYAGSNNLI
Take B1: the MFI worked out at 4 MFI in assay [1], 503 MFI in [2] and 4 MFI in assay [3]. Also, the Neutralization titer SK50 in assay [4] was greater than 40 µg/mL; in assay [5], greater than 40 µg/mL; in [6] it was greater than 40 µg/mL; in [7], greater than 40 µg/mL; in assay [8], 3.26 µg/mL; in assay [9], 1.33 µg/mL. Further, the Neutralization titer SK50 in [10] was greater than 40 µg/mL; in assay [11] it was 4.6 µg/mL; in assay [12], 1.8 µg/mL.

B2: CR8003 (antibody, V domains shown)
VH: EVQLVETGGDLVQPGGSLRLSCSASEFSFSSYWMSWVRQAPGKGLEWVANMKQDGSEKYYVDSVKGRFTISRDNAKNSLYLQMNSLRGEDTAVYYCARGSCDDSWTGCHDAFDI
VL: VLTQPPSVSVAPGQTARIACGGNNIGSKSVHWYQQKPGQAPVLVVYDDSARPSGIPERFSGSNSGNTATLTISRVEAGDEADYYCQVWESGSDLRLL
Regarding B2, the MFI in assay [13] amounted to 5 MFI; in assay [14], 657 MFI; in assay [15] it was 3 MFI. In addition, the Neutralization titer SK50 in [4] was greater than 40 µg/mL; in [5] it was greater than 40 µg/mL; in [6] it was greater than 40 µg/mL; in assay [7], greater than 40 µg/mL; in assay [8] it was 4.27 µg/mL; in assay [9], greater than 40 µg/mL. The Neutralization titer SK50 in assay [10] was greater than 40 µg/mL; in assay [11], greater than 40 µg/mL; in assay [12] it was 5.31 µg/mL.

B3: CR8017 (antibody, V domains shown)
VH: B2 VH
VL: SSELTQDPAVSVALGQTVRITCQGDSLRSYYASWYQQKPGQAPVLVIYAKTNRPSGIPDRFSGSTSGNTASLTITGAQAEDEADYYCNSRDSSGNHVV
As for B3, the MFI was 4 MFI in assay [13], 558 MFI in assay [14] and 3 MFI in assay [15]. The Neutralization titer SK50 is greater than 40 µg/mL in [4]; greater than 40 µg/mL in [5]; greater than 40 µg/mL in assay [6]; greater than 40 µg/mL in assay [7]; 13.6 µg/mL in [8]; greater than 40 µg/mL in assay [9]. Also, the Neutralization titer SK50 in assay [10] is greater than 40 µg/mL; in [11], greater than 40 µg/mL; in assay [12], 2.82 µg/mL.

B4: CR8015 (antibody, V domains shown)
VH: B2 VH with E1Q, V5Q, T7S
VL: VLTQPPSVSVAPGQTAKITCGGDNIGRKSVHWYQQKPGLAPVLVVNDNSDRPSGIPARFSGSNSGNTATLTISRVEAGDEADYYCHVWGSSRDHYV
Take B4: the MFI in [13] was determined as 4 MFI; in [14], 600 MFI; in assay [15], 4 MFI. The Neutralization titer SK50 in assay [4] is greater than 40 µg/mL; in [5], greater than 40 µg/mL; in assay [6] it was greater than 40 µg/mL; in [7], greater than 40 µg/mL; in assay [8], 28.3 µg/mL; in assay [9], greater than 40 µg/mL. Further, the Neutralization titer SK50 was greater than 40 µg/mL in assay [10], greater than 40 µg/mL in assay [11] and 23.8 µg/mL in assay [12].

B5: CR8016 (antibody, V domains shown)
VH: B2 VH with T7S
VL: QSVVTQPPSVSGAPGQRVTISCTGSSSNIGAGYDVHWYQQLPGTAPKLLIYGNNNRPSGVPDRFSGSRSGPLALLAITGLQAEDEADYYCQSYDSSLSVYV
Consider B5, for which the MFI in [13] is 5 MFI; in [14], 840 MFI; in assay [15], 3 MFI. Besides, the Neutralization titer SK50 in assay [4] is greater than 40 µg/mL; in assay [5], greater than 40 µg/mL; in assay [6] it was greater than 40 µg/mL; in [7] it was greater than 40 µg/mL; in [8], 8.84 µg/mL; in [9], greater than 40 µg/mL. In addition, the Neutralization titer SK50 was greater than 40 µg/mL in [10], 28.3 µg/mL in assay [11] and 1.77 µg/mL in [12].

B6: CR8049 (antibody, V domains shown)
VH: QVTLKESGPVLVKPKETLTLTCTVSGFSLSNTRMGVSWIRQPPGKALEWLAHIFSNDETSYRTSLKRRLTISQDISKSQVVLSMTNVDPADTATYFCARIGSGYESSAYSTWLDP
VL: QVQLQQWGAGLLKPSETLSLTCAVYGGSFTDHYWSWIRQSPGKGLEWIGEVVHSGDTNYTPSLRNRVSISVDSSKNQFSLRLGSVTAADTAVYYCARGRNVAVVGAIQRHYDY
Consider B6, for which the values for the MFI in [13], in assay [14] and in assay [15] were 4 MFI, 542 MFI and 3 MFI, respectively. In addition, the Neutralization titer SK50 in assay [4] is greater than 40 µg/mL; in assay [5], greater than 40 µg/mL; in [6], greater than 40 µg/mL; in assay [7], greater than 40 µg/mL; in [8], 3.54 µg/mL; in [9] it was greater than 40 µg/mL. For the same molecule, the Neutralization titer SK50 in assay [10] was greater than 40 µg/mL; in [11], greater than 40 µg/mL; in assay [12], 3.26 µg/mL.

B7: CR8001 (antibody, V domains shown)
VH: EVQLVESGGGLIQPGGSLRLSCAASGFTVSSNYVSWVRQAPGKGLEWLSLIYTGGTTYYADSVKGRFTISRDNSKNTVFLQMNSLRAEDAAMYYCARVSALRFLQWPNYAMDV
VL: QSALTQPASVSGSPGRSITISCSGTRSDVGGHNYVSWYQQHPGKAPKLMIYEVSHRPSGVSNRFSGSKSGSTASLTISGLQSEDEADYYCSSYTGEGPLGV
In the case of B7, the MFI in assay [1] stood at 106 MFI; in assay [2], 763 MFI; in assay [3] it was 100 MFI. Moreover, the Neutralization titer SK50 in assay [4] was greater than 40 µg/mL; in assay [5], greater than 40 µg/mL; in assay [6] it was greater than 40 µg/mL; in assay [7], greater than 40 µg/mL; in assay [8] it was 13 µg/mL; in assay [9], 6.51 µg/mL. The Neutralization titer SK50 in [10] was greater than 40 µg/mL; in assay [11] it was greater than 40 µg/mL; in [12] it was 11.9 µg/mL. Also, the SK50 titer in assay [4] was greater than 40 µg/mL; in assay [6], greater than 40 µg/mL; in assay [8] it was 13 µg/mL; in [9], 6.5 µg/mL; in [11], greater than 40 µg/mL; in assay [16], greater than 40 µg/mL. Further, the SK50 titer in assay [12] amounted to 11.9 µg/mL.

B8: CR8018 (antibody, V domains shown)
VH: B2 VH
VL: B7 VL with R16Q, S23T, R26S, H32Y
For the molecule B8, the MFI came out at 4 MFI in [13], 348 MFI in assay [14] and 3 MFI in [15]. Also, the Neutralization titer SK50 was greater than 40 µg/mL in assay [4]; greater than 40 µg/mL in assay [5]; greater than 40 µg/mL in assay [6]; greater than 40 µg/mL in assay [7]; 8.45 µg/mL in [8]; greater than 40 µg/mL in assay [9]. Besides, the Neutralization titer SK50 is greater than 40 µg/mL in assay [10], greater than 40 µg/mL in [11] and 6.03 µg/mL in [12].

B9: CR8052 (antibody, V domains shown)
VH: DIQLTQSPSSLSASVGDRVTITCRASQGINTYLNWYQQKPGKAPKVLIFAASTLQSGVPSRFSGSGSGTEFTLNINNLQPEDFATYYCQQSYSTAIT
VL: EVQLVESGGGVVQPGRSLRLSCAASGFSFTTYGMHWVRQAPGKGLEWVAFIWYDGSNKHYQDSVKGRFTISKDNSNNMLYLQMDSLRVADTAVYYCVRDGGYSTWEWYFDL
Consider B9, for which the MFI in assay [1] is 5 MFI; in assay [2] it was 364 MFI; in assay [3], 4 MFI. Further, the Neutralization titer SK50 in [4], in [5], in assay [6], in assay [7], in assay [8] and in assay [9] was greater than 40 µg/mL throughout. The Neutralization titer SK50 was greater than 40 µg/mL in [10], 21.9 µg/mL in assay [11] and greater than 40 µg/mL in assay [12].

The record behind these values is patent publication US20130309248A1.
